This passage reports Kd results from paper PMC4494898.

The target of this data set is Egr-1 (Zif268) zinc-finger protein (UniProt P18146 335-423). Briefly: fluorescence anisotropy.

B1: 12-bp competitor duplex (dsDNA)
DNA 1: TATGTAGGCGGT
DNA 2: ACCGCCTACATA
As for B1, the Kd is 29 nM.
